Data from doi:10.1101/2020.08.31.274704.

Assays:
[1] = molecular target: prefusion stabilized trimeric SARS-CoV-2 spike protein ectodomain (S-ECD) (SARS-CoV-2) (UniProt P0DTC2); experiment: ELISA
[2] = molecular target: prefusion stabilized trimeric SARS-CoV-2 spike protein ectodomain (S-ECD) (SARS-CoV-2) (UniProt P0DTC2); experiment: BLI

## ACE2 monomer, ACE2(1-615)-(GGGGS)5-HRV3C-eGFP-His8 (from UniProt Q9BYF1-1 18-615) (domain or fragment)
[1]
  IC50: 0.027 µM
[2]
  Kd: 0.025 µM
